Results: patent US10221215 (NEW YORK UNIVERSITY, dated 2019)
Positions of bridges follow the written chain, without caps; N, C: chain ends. Non-standard residues stand in square brackets, D forms with d. No end group written: not given here. Aib = CC(C)(N)C(=O)O

Target: Ras (residues 1-166 of human Ha-Ras) (human, UniProt P01112 1-166)
Assay: cell-based or functional assay

% Inhibition (Sos-mediated nucleotide exchange from Ras, mantGDP) [%]	Binder
37	FEGIYRLELLKAEEAN [Peptide 7]
50	FEGLLRLWLRK[Aib]EE[Aib]N [Peptide 10]
< 10	AEGIYRTDILRTEEGN [Peptide 3]
56	FEGIYRLEKLKAEEANRR (staple (positions not given here); also: HBS: N-terminal main-chain i,i+4 H-bond replaced by C-C bond (ring-closing metathesis), residues 1-4) [HBS 16]
< 5	FEGIYRLELLK (staple (positions not given here); also: HBS: N-terminal main-chain i,i+4 H-bond replaced by C-C bond (ring-closing metathesis), residues 1-4) [HBS 8]
35	FEGLLRLWLRK[Aib]EEAN (staple (positions not given here); not fully specified (C-terminus, bridges); also: hydrogen bond surrogate: N-terminal main-chain i,i+4 H-bond replaced by C-C bond) [HBS 9]
50	FEGLLRLWLRKAEEAN [Peptide 12]
55	FEGLLRLWLRKAEEAN (staple (positions not given here); also: HBS: N-terminal main-chain i,i+4 H-bond replaced by C-C bond (ring-closing metathesis), residues 1-4) [HBS 12]

Further lines, the binder ahead of its results:

Binder	% Inhibition (Sos-mediated nucleotide exchange from Ras, mantGDP) [%]
FEGIYRTDILRTEEGN [Peptide 1]	13
FEGLLRLWLRK[Aib]EE[Aib]N (staple (positions not given here); not fully specified (C-terminus, bridges); also: hydrogen bond surrogate: N-terminal main-chain i,i+4 H-bond replaced by C-C bond) [HBS 10]	60
FEGIYRLELLK[Aib]EE[Aib]N (staple (positions not given here); not fully specified (C-terminus, bridges); also: hydrogen bond surrogate: N-terminal main-chain i,i+4 H-bond replaced by C-C bond) [HBS 11]	20
FEGIYRTELLKAEEAN [Peptide 6]	20
FEGIYRTDILRTEEGN (staple (positions not given here); also: HBS: N-terminal main-chain i,i+4 H-bond replaced by C-C bond (ring-closing metathesis), residues 1-4) [HBS 1]	11
FEAIYRLELLKAEEAN (staple (positions not given here); also: HBS: N-terminal main-chain i,i+4 H-bond replaced by C-C bond (ring-closing metathesis), residues 1-4) [HBS 13]	50
FEGIYRLELLK [Peptide 8]	< 5
FGEGIYRTDILRTEEGN [Peptide 2]	< 10
FEGIYRTELLKAEEAN (staple (positions not given here); also: HBS: N-terminal main-chain i,i+4 H-bond replaced by C-C bond (ring-closing metathesis), residues 1-4) [HBS 6]	40
AEGIYRLELLKAEAAA (staple (positions not given here); also: HBS: N-terminal main-chain i,i+4 H-bond replaced by C-C bond (ring-closing metathesis), residues 1-4) [HBS 7^mut]	15
FEGIYRLELLKAEEAN (staple (positions not given here); also: HBS: N-terminal main-chain i,i+4 H-bond replaced by C-C bond (ring-closing metathesis), residues 1-4) [HBS 7]	64
FEAIYRLEKLKAEEAN [Peptide 15]	50
FEAIYRLELLKAEEAN [Peptide 13]	40
FEAIYRLEKLKAEEAN (staple (positions not given here); lactam 9-13; also: HBS: N-terminal main-chain i,i+4 H-bond replaced by C-C bond (ring-closing metathesis), residues 1-4) [HBS 15^]	< 10
FEGIYRLELLK[Aib]EE[Aib]N [Peptide 11]	30
AEGIYRADILRTEEGN [Peptide 4]	< 10
FEGIYRTDILR [Peptide 5]	< 10
